Measured values from patent US20030068675, “Position dependent recognition of GNN nucleotide triplets by zinc fingers” (published 2003).

How the values were obtained:
Assay in all cases: EMSA
Conditions in all cases: tags: MBP fusion
ZFP SBS#608 = molecular target: T1, ZFP SBS#608 (synthetic)
T1 chain: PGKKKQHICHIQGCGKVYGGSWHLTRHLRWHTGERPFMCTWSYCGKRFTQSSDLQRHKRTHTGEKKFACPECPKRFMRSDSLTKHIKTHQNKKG
Method in brief: (§1)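 Purified ZFP was titrated against labeled double-stranded target (1 nM or lower, at least 10-fold below expected Kd) carrying the natural binding site with flanks. Binding buffer was 10 mM Tris pH 7.5, 100 mM KCl, 1 mM MgCl2, 0.1 mM ZnCl2, 5 mM DTT, 10% glycerol, 0.02% BSA, with equilibration for at least 45 min. Bound and free target were separated on a 10% polyacrylamide gel.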

ZFP SBS#614 = ZFP SBS#614 (synthetic)
Method in brief: as §1

ZFP SBS#613 = ZFP SBS#613 (synthetic)
Method in brief: as §1

ZFP SBS#369 = molecular target: T2, ZFP SBS#369 (synthetic)
T2 chain: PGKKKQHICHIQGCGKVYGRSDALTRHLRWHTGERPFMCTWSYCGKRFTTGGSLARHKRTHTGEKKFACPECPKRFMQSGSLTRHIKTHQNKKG
Method in brief: as §1

ZFP SBS#422 = molecular target: T3, ZFP SBS#422 (synthetic)
T3 chain: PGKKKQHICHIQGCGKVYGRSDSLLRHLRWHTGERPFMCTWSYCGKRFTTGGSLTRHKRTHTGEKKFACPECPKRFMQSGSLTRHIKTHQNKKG
Method in brief: as §1

ZFP SBS#370 = molecular target: T4, ZFP SBS#370 (synthetic)
T4 chain: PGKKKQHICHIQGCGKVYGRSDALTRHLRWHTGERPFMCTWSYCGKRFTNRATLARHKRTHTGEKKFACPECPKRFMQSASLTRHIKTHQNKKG
Method in brief: as §1

ZFP SBS#371 = molecular target: T5, ZFP SBS#371 (synthetic)
T5 chain: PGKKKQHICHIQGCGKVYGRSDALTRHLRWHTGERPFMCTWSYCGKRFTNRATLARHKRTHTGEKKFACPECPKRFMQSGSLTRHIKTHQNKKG
Method in brief: as §1

ZFP SBS#373 = molecular target: T6, ZFP SBS#373 (synthetic)
T6 chain: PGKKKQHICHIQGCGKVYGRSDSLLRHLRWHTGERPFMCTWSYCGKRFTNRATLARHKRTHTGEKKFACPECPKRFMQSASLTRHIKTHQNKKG
Method in brief: as §1

ZFP SBS#403 = molecular target: T7, ZFP SBS#403 (synthetic)
T7 chain: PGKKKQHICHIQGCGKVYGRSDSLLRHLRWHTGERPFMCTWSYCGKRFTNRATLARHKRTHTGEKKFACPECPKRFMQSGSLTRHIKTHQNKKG
Method in brief: as §1

ZFP SBS#372 = molecular target: T8, ZFP SBS#372 (synthetic)
T8 chain: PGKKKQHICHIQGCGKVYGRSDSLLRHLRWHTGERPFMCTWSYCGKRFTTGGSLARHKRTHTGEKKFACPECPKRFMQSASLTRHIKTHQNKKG
Method in brief: as §1

ZFP SBS#401 = molecular target: T9, ZFP SBS#401 (synthetic)
T9 chain: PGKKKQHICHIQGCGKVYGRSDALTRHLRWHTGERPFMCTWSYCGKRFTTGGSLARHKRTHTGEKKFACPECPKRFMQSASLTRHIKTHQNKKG
Method in brief: as §1

ZFP SBS#569 = molecular target: T10, ZFP SBS#569 (synthetic)
T10 chain: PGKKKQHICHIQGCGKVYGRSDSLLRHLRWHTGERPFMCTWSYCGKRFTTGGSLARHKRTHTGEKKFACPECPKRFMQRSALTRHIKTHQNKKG
Method in brief: as §1

ZFP SBS#421 = molecular target: T11, ZFP SBS#421 (synthetic)
T11 chain: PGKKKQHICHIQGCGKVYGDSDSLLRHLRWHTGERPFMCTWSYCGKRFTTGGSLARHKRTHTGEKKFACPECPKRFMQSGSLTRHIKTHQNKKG
Method in brief: as §1

ZFP SBS#666 = molecular target: T12, ZFP SBS#666 (synthetic)
T12 chain: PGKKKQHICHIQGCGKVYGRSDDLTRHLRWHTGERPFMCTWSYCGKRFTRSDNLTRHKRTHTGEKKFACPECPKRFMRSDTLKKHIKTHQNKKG
Method in brief: as §1

ZFP SBS#665 = molecular target: T13, ZFP SBS#665 (synthetic)
T13 chain: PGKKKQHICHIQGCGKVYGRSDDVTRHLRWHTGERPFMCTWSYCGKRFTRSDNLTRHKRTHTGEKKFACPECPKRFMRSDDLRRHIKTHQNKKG
Method in brief: as §1

ZFP SBS#660 = molecular target: T14, ZFP SBS#660 (synthetic)
T14 chain: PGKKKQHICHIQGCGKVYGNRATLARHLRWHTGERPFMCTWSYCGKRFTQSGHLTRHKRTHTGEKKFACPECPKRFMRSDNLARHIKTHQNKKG
Method in brief: as §1

ZFP SBS#661 = ZFP SBS#661 (synthetic)
Method in brief: as §1

ZFP SBS#621 = molecular target: T15, ZFP SBS#621 (synthetic)
T15 chain: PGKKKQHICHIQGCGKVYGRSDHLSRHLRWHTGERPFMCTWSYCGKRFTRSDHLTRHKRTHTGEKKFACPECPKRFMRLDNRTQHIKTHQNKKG
Method in brief: as §1

ZFP SBS#620 = ZFP SBS#620 (synthetic)
Method in brief: as §1

ZFP SBS#618 = molecular target: T16, ZFP SBS#618 (synthetic)
T16 chain: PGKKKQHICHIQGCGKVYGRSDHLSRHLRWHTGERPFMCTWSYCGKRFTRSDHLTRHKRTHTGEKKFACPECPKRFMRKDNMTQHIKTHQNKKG
Method in brief: as §1

ZFP SBS#617 = molecular target: T17, ZFP SBS#617 (synthetic)
T17 chain: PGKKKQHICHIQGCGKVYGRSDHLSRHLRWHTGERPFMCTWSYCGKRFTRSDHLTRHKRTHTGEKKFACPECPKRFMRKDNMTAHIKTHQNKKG
Method in brief: as §1

ZFP SBS#619 = molecular target: T18, ZFP SBS#619 (synthetic)
T18 chain: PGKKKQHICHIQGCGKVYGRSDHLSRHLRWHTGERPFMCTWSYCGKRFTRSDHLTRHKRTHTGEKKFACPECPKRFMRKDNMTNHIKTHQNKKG
Method in brief: as §1

ZFP SBS#630 = ZFP SBS#630 (synthetic)
Method in brief: as §1

ZFP SBS#656 = ZFP SBS#656 (synthetic)
Method in brief: as §1

ZFP SBS#657 = molecular target: T19, ZFP SBS#657 (synthetic)
T19 chain: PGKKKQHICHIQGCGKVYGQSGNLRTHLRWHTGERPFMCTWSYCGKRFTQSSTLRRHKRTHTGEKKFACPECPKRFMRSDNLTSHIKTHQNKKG
Method in brief: as §1

ZFP SBS#654 = ZFP SBS#654 (synthetic)
Method in brief: as §1

ZFP SBS#616 = ZFP SBS#616 (synthetic)
Method in brief: as §1

ZFP SBS#624 = molecular target: T20, ZFP SBS#624 (synthetic)
T20 chain: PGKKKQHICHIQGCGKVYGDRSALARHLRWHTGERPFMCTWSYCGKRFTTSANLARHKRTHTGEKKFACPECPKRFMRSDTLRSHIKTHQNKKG
Method in brief: as §1

ZFP SBS#628 = molecular target: T21, ZFP SBS#628 (synthetic)
T21 chain: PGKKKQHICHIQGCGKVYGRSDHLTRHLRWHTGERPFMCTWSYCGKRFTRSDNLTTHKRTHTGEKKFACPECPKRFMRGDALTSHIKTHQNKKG
Method in brief: as §1

ZFP SBS#629 = molecular target: T22, ZFP SBS#629 (synthetic)
T22 chain: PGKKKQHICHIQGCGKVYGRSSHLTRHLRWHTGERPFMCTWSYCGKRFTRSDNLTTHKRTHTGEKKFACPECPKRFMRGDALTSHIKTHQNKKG
Method in brief: as §1

ZFP SBS#647 = molecular target: T23, ZFP SBS#647 (synthetic)
T23 chain: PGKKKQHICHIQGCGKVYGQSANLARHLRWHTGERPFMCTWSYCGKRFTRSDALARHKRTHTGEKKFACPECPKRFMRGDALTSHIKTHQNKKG
Method in brief: as §1

ZFP SBS#646 = molecular target: T24, ZFP SBS#646 (synthetic)
T24 chain: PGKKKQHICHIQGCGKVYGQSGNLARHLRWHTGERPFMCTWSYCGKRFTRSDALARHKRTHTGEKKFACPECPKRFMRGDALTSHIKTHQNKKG
Method in brief: as §1

ZFP SBS#611 = ZFP SBS#611 (synthetic)
Method in brief: as §1

ZFP SBS#612 = molecular target: T25, ZFP SBS#612 (synthetic)
T25 chain: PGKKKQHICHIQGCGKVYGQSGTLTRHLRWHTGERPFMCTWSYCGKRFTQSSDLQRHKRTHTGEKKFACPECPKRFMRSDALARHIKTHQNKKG
Method in brief: as §1

ZFP SBS#651 = ZFP SBS#651 (synthetic)
Method in brief: as §1

ZFP SBS#652 = ZFP SBS#652 (synthetic)
Method in brief: as §1

ZFP SBS#653 = molecular target: T26, ZFP SBS#653 (synthetic, UniProt P08047)
T26 chain: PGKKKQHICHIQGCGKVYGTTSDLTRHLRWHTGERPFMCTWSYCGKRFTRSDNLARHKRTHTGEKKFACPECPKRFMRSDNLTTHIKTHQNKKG
Method in brief: as §1

Sequence of ZFP SBS#656 (synthetic) (chain, as listed by the source): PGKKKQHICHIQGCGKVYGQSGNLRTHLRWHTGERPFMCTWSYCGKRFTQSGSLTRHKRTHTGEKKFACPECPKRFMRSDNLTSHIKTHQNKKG
Sequence of ZFP SBS#651 (synthetic) (chain, as listed by the source): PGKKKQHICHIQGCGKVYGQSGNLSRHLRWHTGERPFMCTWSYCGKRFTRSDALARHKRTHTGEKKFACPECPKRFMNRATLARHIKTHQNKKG
Sequence of ZFP SBS#652 (synthetic) (chain, as listed by the source): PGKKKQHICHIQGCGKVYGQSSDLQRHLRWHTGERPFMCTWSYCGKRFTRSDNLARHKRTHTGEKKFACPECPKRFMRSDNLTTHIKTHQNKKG
Sequence of ZFP SBS#661 (synthetic) (chain, as listed by the source): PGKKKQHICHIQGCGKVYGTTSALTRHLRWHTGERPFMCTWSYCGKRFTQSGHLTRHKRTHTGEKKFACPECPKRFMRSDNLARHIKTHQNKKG
Sequence of ZFP SBS#613 (synthetic) (chain, as listed by the source): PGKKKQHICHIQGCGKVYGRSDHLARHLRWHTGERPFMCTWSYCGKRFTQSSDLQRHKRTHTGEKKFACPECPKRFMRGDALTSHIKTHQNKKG
Sequence of ZFP SBS#620 (synthetic) (chain, as listed by the source): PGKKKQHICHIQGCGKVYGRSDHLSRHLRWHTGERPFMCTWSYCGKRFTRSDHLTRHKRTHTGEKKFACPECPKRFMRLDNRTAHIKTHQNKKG
Sequence of ZFP SBS#614 (synthetic) (chain, as listed by the source): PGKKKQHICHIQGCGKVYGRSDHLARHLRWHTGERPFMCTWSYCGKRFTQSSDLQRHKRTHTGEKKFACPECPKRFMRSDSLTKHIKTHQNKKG

B1: TTGGCTGGGC (dsDNA)
DNA 1: TTGGCTGGGC
DNA 2: GCCCAGCCAA
B1 gave a Kd (ZFP SBS#608) of 8 nM, a Kd (ZFP SBS#614) of 2 nM and a Kd (ZFP SBS#613) of 1.45 nM.

B2: GTAGTTGTG (dsDNA)
DNA 1: GTAGTTGTG
DNA 2: CACAACTAC
In the case of B2, the Kd (ZFP SBS#369) is reported as 95 nM, the Kd (ZFP SBS#422) is reported as 200 nM and the Kd (ZFP SBS#370) is reported as 300 nM. It also gave a Kd (ZFP SBS#371) of 175 nM, a Kd (ZFP SBS#373) of 320 nM and a Kd (ZFP SBS#403) of 750 nM. The Kd (ZFP SBS#372) was 112 nM, the Kd (ZFP SBS#401) was 80 nM and the Kd (ZFP SBS#569) was 52 nM. The Kd (ZFP SBS#421) was 500 nM.

B3: GCGGAGGCGC (dsDNA)
DNA 1: GCGGAGGCGC
DNA 2: GCGCCTCCGC
Work on B3 yielded a Kd (ZFP SBS#666) of 0.5 nM and a Kd (ZFP SBS#665) of 12.5 nM.

B4: GAGGGAGTTC (dsDNA)
DNA 1: GAGGGAGTTC
DNA 2: GAACTCCCTC
Binder B4 has a Kd (ZFP SBS#660) of 8.25 nM and a Kd (ZFP SBS#661) of 1.73 nM.

B5: AAGGGGGGG (dsDNA)
DNA 1: AAGGGGGGG
DNA 2: CCCCCCCTT
Binder B5 has a Kd (ZFP SBS#621) of 0.75 nM, a Kd (ZFP SBS#620) of 0.54 nM and a Kd (ZFP SBS#618) of 0.55 nM. The Kd (ZFP SBS#617) was 1 nM and the Kd (ZFP SBS#619) was 1.34 nM.

B6: CGGGGAGAGT (dsDNA)
DNA 1: CGGGGAGAGT
DNA 2: ACTCTCCCCG
In the case of B6, the Kd (ZFP SBS#630) is reported as 37.5 nM.

B7: TAGGCATAAA (dsDNA)
DNA 1: TAGGCATAAA
DNA 2: TTTATGCCTA
B7 gave a Kd (ZFP SBS#656) of 540 nM, a Kd (ZFP SBS#657) of 300 nM and a Kd (ZFP SBS#654) of 105 nM.

B8: GAGGAGGATG (dsDNA)
DNA 1: GAGGAGGATG
DNA 2: CATCCTCCTC
B8 was tested, and the Kd (ZFP SBS#616) was 0.08 nM.

B9: ACGGATGTCT (dsDNA)
DNA 1: ACGGATGTCT
DNA 2: AGACATCCGT
In the case of B9, the Kd (ZFP SBS#624) is reported as 7 nM.

B10: TTGTAGGGGA (dsDNA)
DNA 1: TTGTAGGGGA
DNA 2: TCCCCTACAA
In the case of B10, the Kd (ZFP SBS#628) is reported as 130 nM and the Kd (ZFP SBS#629) is reported as 150 nM.

B11: TTGGTGGAAG (dsDNA)
DNA 1: TTGGTGGAAG
DNA 2: CTTCCACCAA
For B11, the Kd (ZFP SBS#647) was 40 nM and the Kd (ZFP SBS#646) was 35 nM.

B12: GTGGCTGCAG (dsDNA)
DNA 1: GTGGCTGCAG
DNA 2: CTGCAGCCAC
B12 showed a Kd (ZFP SBS#611) of 11.5 nM and a Kd (ZFP SBS#612) of 0.38 nM.

B13: GTTGTGGAAT (dsDNA)
DNA 1: GTTGTGGAAT
DNA 2: ATTCCACAAC
For B13, the Kd (ZFP SBS#651) was 67.5 nM.

B14: TAGGAGGCTG (dsDNA)
DNA 1: TAGGAGGCTG
DNA 2: CAGCCTCCTA
For B14, the Kd (ZFP SBS#652) was 1.5 nM and the Kd (ZFP SBS#653) was 5.5 nM.
